# Patent US20040029280A1
# Key:
# [1] = target: recombinant Ad5 knob (knob domain of the adenovirus type 5 fiber protein) (adenovirus type 5 (Ad5)) (UniProt P11818); assay: Biacore analysis
# [2] = target: adenoviral fiber knob on AdCMVLuc (Ad5 vector) virions (adenovirus type 5 (Ad5)) (UniProt P11818); assay: cell-based or functional assay
# [3] = target: Recombinant trimeric Ad5 knob protein with an N-terminal 6-His tag (adenovirus type 5 (Ad5)) (UniProt P11818); assay: ELISA on His-tagged Ad5 knob on Ni-NTA strips, detection with anti-FGF2 antibody and anti-rabbit HRP; wells without knob gave 0.35+0.04
# [4] = target: FGF receptors; assay: cell-based or functional assay
# [5] = target: Recombinant trimeric Ad5 knob protein with an N-terminal 6-His tag (adenovirus type 5 (Ad5)) (UniProt P11818); assay: ELISA on His-tagged Ad5 knob on Ni-NTA strips, detection with anti-FGF2 antibody and anti-rabbit HRP; control
substance,measurement,setting,value
Fab fragment of 1D6.14 anti-Ad5 knob neutralizing antibody,Kd,[1],2.1 nM
same,"block of AdCMV-Luc transduction (luciferase), CVU-1 cells",[2],20%
same,"block of AdCMV-Luc transduction (luciferase), KS-SLK cells",[2],> 50%
same,"block of AdCMV-Luc transduction (luciferase), KSY-1 cells",[2],> 50%
same,"block of AdCMV-Luc transduction (luciferase), RW376 cells",[2],> 50%
same,"inhibition of AdCMVLuc infection (luciferase), 3T3 cells",[2],97%
same,"inhibition of AdCMVLuc infection (luciferase), D54 MG cells",[2],98.3%
same,"inhibition of AdCMVLuc infection (luciferase), PANC-1 cells",[2],98.8%
same,"inhibition of AdCMVLuc infection (luciferase), SKOV3.1p1 cells",[2],69.3%
same,"inhibition of AdCMVLuc transfection (luciferase), HUVECs",[2],87%
Fab-FGF2 conjugate (1D6.14 Fab chemically conjugated to FGF2 C96S mutein) (from UniProt P09038 1-155),absorbance,[3],3.7 absorbance
same,"inhibition by anti-FGF2 antibody of infection by the Ad-Fab-FGF2 complex (luciferase), 3T3 cells",[4],96.1%
same,"inhibition by anti-FGF2 antibody of infection by the Ad-Fab-FGF2 complex (luciferase), D54 MG cells",[4],94%
same,"inhibition by anti-FGF2 antibody of infection by the Ad-Fab-FGF2 complex (luciferase), PANC-1 cells",[4],96.3%
same,"inhibition by anti-FGF2 antibody of infection by the Ad-Fab-FGF2 complex (luciferase), SKOV3.1p1 cells",[4],90.1%
FGF2 mutein (C96S) (from UniProt P09038 1-155) (ligand),absorbance,[5],1.55 absorbance
